Experimental data taken from patent US20230265151A1, “GIP/GLP1 CO-AGONIST COMPOUNDS” (priority 2020, published 2023).
Changes are numbered by the printed parent chain.

T1: human GIP receptor (human) (UniProt P48546)
T1 sequence (looked up): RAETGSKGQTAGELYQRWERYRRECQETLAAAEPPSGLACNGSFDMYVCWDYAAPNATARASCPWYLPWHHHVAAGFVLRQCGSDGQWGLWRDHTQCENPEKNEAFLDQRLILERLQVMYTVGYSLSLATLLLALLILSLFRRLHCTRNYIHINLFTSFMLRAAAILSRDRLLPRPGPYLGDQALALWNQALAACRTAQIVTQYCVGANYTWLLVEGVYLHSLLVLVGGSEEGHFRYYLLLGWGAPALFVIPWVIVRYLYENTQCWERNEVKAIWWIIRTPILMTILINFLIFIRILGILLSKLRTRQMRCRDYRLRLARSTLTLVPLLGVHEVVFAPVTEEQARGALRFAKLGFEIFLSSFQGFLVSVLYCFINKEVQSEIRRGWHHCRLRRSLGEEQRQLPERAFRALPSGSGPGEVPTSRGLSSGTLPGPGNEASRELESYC

T2: human GIP receptor (human, UniProt P48546 22-466)
T2 sequence (looked up): T1 sequence (looked up)

T3: human GIP receptor (human, UniProt P48546 22-466)
T3 sequence (looked up): T1 sequence (looked up)

B1: Example 334 (peptide)
peptide: YXEGTXTSDXXIXLDXKAQXEFIXXLIKGGPSSGAPPPS
modifications: Y-Aib-EGT-αMeF(2F)-TSD-4Pal-Aib-I-αMeL-LD-Orn-K((2-[2-(2-Amino-ethoxy)-ethoxy]-acetyl)2-(γ-Glu)-CO-(CH2)10-CH3)AQ-Aib-EFI-(D-Glu)-αMeY-LIK((2-[2-(2-Amino-ethoxy)-ethoxy]-acetyl)2-(γ-Glu)-CO-(CH2)10-CH3)GGPSSGAPPPS-NH2
B2: Example 406 (peptide)
peptide: B1 peptide with E21K, K28X
modifications: Y-Aib-EGT-αMeF(2F)-TSD-4Pal-Aib-I-αMeL-LD-Orn-K((2-[2-(2-Amino-ethoxy)-ethoxy]-acetyl)2-(γ-Glu)-CO-(CH2)12-CO2H)AQ-Aib-K((2-[2-(2-Amino-ethoxy)-ethoxy]-acetyl)2-(γ-Glu)-CO-(CH2)12-CO2H)FI-(D-Glu)-αMeY-LI-Orn-GGPSSGAPPPS-NH2
B3: Example 408 (peptide)
peptide: B1 peptide with E21K, K28X
modifications: Y-Aib-EGT-αMeF(2F)-TSD-4Pal-Aib-I-αMeL-LD-Orn-K((2-[2-(2-Amino-ethoxy)-ethoxy]-acetyl)2-(γ-Glu)-(10-(4-carboxyphenoxy)decanoyl))AQ-Aib-K((2-[2-(2-Amino-ethoxy)-ethoxy]-acetyl)2-(γ-Glu)-(10-(4-carboxyphenoxy)decanoyl))FI-(D-Glu)-αMeY-LI-Orn-GGPSSGAPPPS-NH2
B4: Example 387 (peptide)
peptide: B1 peptide
modifications: Y-Aib-EGT-αMeF(2F)-TSD-4Pal-Aib-I-αMeL-LD-Orn-K((2-[2-(2-Amino-ethoxy)-ethoxy]-acetyl)2-CO-(CH2)12-CO2H)AQ-Aib-EFI-(D-Glu)-αMeY-LIK((2-[2-(2-Amino-ethoxy)-ethoxy]-acetyl)2-CO-(CH2)12-CO2H)GGPSSGAPPPS-NH2
B5: Example 395 (peptide)
peptide: B1 peptide
modifications: Y-Aib-EGT-αMeF(2F)-TSD-4Pal-Aib-I-αMeL-LD-Orn-K((2-[2-(2-Amino-ethoxy)-ethoxy]-acetyl)2-(10-(4-carboxyphenoxy)decanoyl))AQ-Aib-EFI-(D-Glu)-αMeY-LIK((2-[2-(2-Amino-ethoxy)-ethoxy]-acetyl)2-(10-(4-carboxyphenoxy)decanoyl))GGPSSGAPPPS-NH2
B6: Example 358 (peptide)
peptide: B1 peptide
modifications: Y-Aib-EGT-αMeF(2F)-TSD-4Pal-Aib-I-αMeL-LD-Orn-K((2-[2-(2-Amino-ethoxy)-ethoxy]-acetyl)2-(γ-Glu)-CO-(CH2)12-CO2H)AQ-Aib-EFI-(D-Glu)-αMeY-LIK((2-[2-(2-Amino-ethoxy)-ethoxy]-acetyl)2-(γ-Glu)-CO-(CH2)12-CO2H)GGPSSGAPPPS-NH2
B7: Example 361 (peptide)
peptide: B1 peptide
modifications: Y-Aib-EGT-αMeF(2F)-TSD-4Pal-Aib-I-αMeL-LD-Orn-K((2-[2-(2-Amino-ethoxy)-ethoxy]-acetyl)-(γ-Glu)-(10-(4-carboxyphenoxy)decanoyl))AQ-Aib-EFIe-αMeY-LIK((2-[2-(2-Amino-ethoxy)-ethoxy]-acetyl)-(γ-Glu)-(10-(4-carboxyphenoxy)decanoyl))GGPSSGAPPPS-NH2

Key:
Assay in all cases: cell-based or functional assay
[1] = target: human glucagon receptor (human) (UniProt P47871)
[2] = target: T1, human GIP receptor (human)
[3] = target: hGLP-1R (Homo sapiens, UniProt P43220)
[4] = target: T2, human GIP receptor
[5] = target: human GLP-1 receptor (human, UniProt P43220 24-463)
[6] = target: human GLP-1 receptor (human, UniProt P43220 24-463); remark: listed apart in the source
[7] = target: T3, human GIP receptor; remark: listed apart in the source

| Molecule | cAMP EC50 (1.0% HSA) [1] [nM] | cAMP EC50 (1.0% HSA) [2] [nM] | cAMP Emax (1.0% HSA) [2] [%] | cAMP EC50 (1.0% HSA) [3] [nM] | cAMP Emax (1.0% HSA) [3] [%] | cAMP EC50 [1] [nM] | cAMP EC50 [2] [nM] | cAMP Emax [2] [%] | cAMP EC50 [3] [nM] | cAMP Emax [3] [%] | cAMP EC50 (1.0% HSA) [4] [nM] | cAMP EC50 (1.0% HSA) [5] [nM] | cAMP EC50 (1.0% HSA) [6] [nM] | cAMP EC50 (1.0% HSA) [7] [nM] | cAMP Emax (1.0% HSA) [7] [%] |
| --- | --- | --- | --- | --- | --- | --- | --- | --- | --- | --- | --- | --- | --- | --- | --- |
| Y-Aib-EGT-αMeF(2F)-TSD-4Pal-SI-αMeL-LD-Orn-K((2-[2-(2-Amino-ethoxy)-ethoxy]-acetyl)2-(γ-Glu)-CO-(CH2)12-CO2H)AQ-Aib-EFI-(D-Glu)-αMeY-LIEGGK((2-[2-(2-Amino-ethoxy)-ethoxy]-acetyl)2-(γ-Glu)-CO-(CH2)12-CO2H)SSG-Orn-PPP-Orn-NH2 (peptide) | > 9950 | 1.25 | 96.5 | 34.6 | 102 | – | – | – | – | – | – | – | – | – | – |
| Y-Aib-EGT-αMeF(2F)-TSD-4Pal-SI-αMeL-LD-Orn-K((2-[2-(2-Amino-ethoxy)-ethoxy]-acetyl)2-(εK)-CO-(CH2)12-CO2H)AQ-Aib-EFI-(D-Glu)-αMeY-LIEGGK((2-[2-(2-Amino-ethoxy)-ethoxy]-acetyl)2-(εK)-CO-(CH2)12-CO2H)-NH2 (peptide) | > 9950 | 0.335 | 86.2 | 11.3 | 103 | – | – | – | – | – | – | – | – | – | – |
| Y-Aib-EGT-αMeF(2F)-TSD-4Pal-SI-αMeL-LD-Orn-K((εK)-(γ-Glu)-CO-(CH2)12-CO2H)AQ-Aib-EFI-(D-Glu)-αMeY-LIEGGK((εK)-(γ-Glu)-CO-(CH2)12-CO2H)-NH2 (peptide) | > 9950 | 2.19 | 85.6 | 24.3 | 107 | – | – | – | – | – | – | – | – | – | – |
| Y-Aib-EGT-αMeF(2F)-TSD-4Pal-SI-αMeL-LD-Orn-K((2-[2-(2-Amino-ethoxy)-ethoxy]-acetyl)2-(γ-Glu)-CO-(CH2)12-CO2H)AQ-Aib-EFI-(D-Glu)-αMeY-LIEGGK((2-[2-(2-Amino-ethoxy)-ethoxy]-acetyl)2-(γ-Glu)-CO-(CH2)12-CO2H)SSG-NH2 (peptide) | > 9950 | 1.22 | 75.5 | 66.6 | 97.3 | – | – | – | – | – | – | – | – | – | – |
| Y-Aib-EGT-αMeF(2F)-TSD-4Pal-SI-αMeL-LD-Orn-IAQ-Aib-EFIK((2-[2-(2-Amino-ethoxy)-ethoxy]-acetyl)2-(γ-Glu)-CO-(CH2)12-CO2H)-αMeY-…((2-[2-(2-Amino-ethoxy)-ethoxyl-acetyl)2-(γ-Glu)-CO-(CH2)12-CO2H)-NH2 (peptide) | > 9950 | 3.55 | 95.9 | 40.1 | 98.8 | – | – | – | – | – | – | – | – | – | – |
| Y-Aib-EGT-αMeF(2F)-TSD-4Pal-SI-αMeL-LD-Orn-K((2-[2-(2-Amino-ethoxy)-ethoxy]-acetyl)2-(γ-Glu)-(4-(4-tert-butylphenyl)butanoyl))AQ-Aib-EFI-(D-Glu)-K((2-[2-(2-Amino-ethoxy)-ethoxy]-acetyl)2-(γ-Glu)-(4-(4-tert-butylphenyl)butanoyl))…-NH2 (peptide) | > 9950 | 0.0417 | 91.9 | 12 | 104 | – | – | – | – | – | – | – | – | – | – |
| Y-Aib-EGT-αMeF(2F)-TSD-4Pal-SI-αMeL-LD-Orn-K((2-[2-(2-Amino-ethoxy)-ethoxy]-acetyl)2-(γ-Glu)-CO-(CH2)12-CO2H)AQ-Aib-EFI-(D-Glu)-αMeY-LIEGGK((2-[2-(2-Amino-ethoxy)-ethoxy]-acetyl)2-(γ-Glu)-CO-(CH2)12-CO2H)SSG-Orn-PPPS-NH2 (peptide) | > 9950 | 1.15 | 94.1 | 40.8 | 98.2 | – | – | – | – | – | – | – | – | – | – |
| Y-Aib-EGT-αMeF(2F)-TSD-4Pal-SI-αMeL-LD-Orn-K((2-[2-(2-Amino-ethoxy)-ethoxy]-acetyl)2-(γ-Glu)-CO-(CH2)12-CO2H)AQ-Aib-EFI-(D-Glu)-αMeY-LIEGGK((2-[2-(2-Amino-ethoxy)-ethoxy]-acetyl)2-(γ-Glu)-CO-(CH2)12-CO2H)-NH2 (peptide) | > 9950 | 2.46 | 81.2 | 119 | 87.8 | – | – | – | – | – | – | – | – | – | – |
| Y-Aib-EGT-αMeF(2F)-TSD-4Pal-SI-αMeL-LD-Orn-IAQ-Aib-K((2-[2-(2-Amino-ethoxy)-ethoxy]-acetyl)2-(γ-Glu)-CO-(CH2)12-CO2H)FIK((2-[2-(2-Amino-ethoxy)-ethoxy]-acetyl)2-(γ-Glu)-CO-(CH2)12-CO2H)-αMeY-…-NH2 (peptide) | > 9950 | 2.32 | 86.8 | 18.9 | 102 | – | – | – | – | – | – | – | – | – | – |
| Y-Aib-EGT-αMeF(2F)-TSD-4Pal-SI-αMeL-LD-Orn-K((2-[2-(2-Amino-ethoxy)-ethoxy]-acetyl)2-(γ-Glu)-CO-(CH2)12-CO2H)AQ-Aib-EFIK((2-[2-(2-Amino-ethoxy)-ethoxy]-acetyl)2-(γ-Glu)-CO-(CH2)12-CO2H)-αMeY-LIEG-Orn-NH2 (peptide) | > 9950 | 1.55 | 82.8 | 28.9 | 112 | – | – | – | – | – | – | – | – | – | – |
| Y-Aib-EGT-αMeF(2F)-TSD-4Pal-SI-αMeL-LD-Orn-K((εK)-(εK)-(γ-Glu)-CO-(CH2)12-CO2H)AQ-Aib-EFI-(D-Glu)-αMeY-LIEGGK((εK)-(εK)-(γ-Glu)-CO-(CH2)12-CO2H)-NH2 (peptide) | > 9950 | 0.939 | 79.3 | 18 | 109 | – | – | – | – | – | – | – | – | – | – |
| B1 | – | – | – | – | – | > 9950 | 0.00987 | 103 | 0.131 | 104 | 0.618 | 8.67 | – | – | – |
| B2 | – | – | – | – | – | > 9950 | 0.00896 | 101 | 0.351 | 98.5 | – | – | 9.21 | 0.527 | – |
| B3 | – | – | – | – | – | > 9950 | 0.00888 | 99.7 | 0.227 | 102 | – | – | 5.92 | 0.299 | – |
| B4 | – | – | – | – | – | > 9950 | 0.0137 | 102 | 0.32 | 101 | – | – | 4.4 | 0.278 | 93 |
| B5 | – | – | – | – | – | > 9950 | 0.0127 | 93.1 | 0.377 | 90.8 | – | – | 6.26 | 0.327 | 57.8 |
| B6 | – | – | – | – | – | > 10100 | 0.0137 | 99.6 | 0.773 | 107 | – | – | 65.3 | 2.06 | 86.2 |
| B7 | – | – | – | – | – | > 9950 | 0.0121 | 107 | 0.58 | 98.2 | – | – | 43 | 1.44 | 88.8 |
